We go through 2 substances from US20030166536A1.

Bounds are passed on as bounds.

Holding throughout (test): cell-based or functional assay
Assay [1] addresses human A1/A3-C1-C2 dimer of factor VIIIa (human) (UniProt P00451).
The target in assay [2] is porcine A1/A3-C1-C2 dimer of factor VIIIa (porcine) (UniProt P12263).
Assay [3] concerns the target HP10, hybrid human/porcine B-domainless factor VIII, porcine substitution 373-403 (human; porcine) (UniProt P00451).
In assay [4] the target is HP8, hybrid human/porcine B-domainless factor VIII, porcine substitution 373-483 (human; porcine) (UniProt P00451).
Assay [5] concerns the target human B-domainless factor VIII S488 → A (human) (UniProt P00451).
The target in assay [6] is human B-domainless factor VIII V495 → A (human) (UniProt P00451).
Assay [7] has as its target human B-domainless factor VIII R484 → A (human) (UniProt P00451).
Assay [8] has as its target B-domainless human factor VIII (human) (UniProt P00451).
Assay [9] has as its target HP13, hybrid human/porcine B-domainless factor VIII, porcine substitution 484-488 (human; porcine) (UniProt P00451).
For assay [10], the target named is human B-domainless factor VIII I508 → A (human) (UniProt P00451).
Sequence of human B-domainless factor VIII I508 → A (human) (P00451 other isoform, or with tags, fused parts or gaps): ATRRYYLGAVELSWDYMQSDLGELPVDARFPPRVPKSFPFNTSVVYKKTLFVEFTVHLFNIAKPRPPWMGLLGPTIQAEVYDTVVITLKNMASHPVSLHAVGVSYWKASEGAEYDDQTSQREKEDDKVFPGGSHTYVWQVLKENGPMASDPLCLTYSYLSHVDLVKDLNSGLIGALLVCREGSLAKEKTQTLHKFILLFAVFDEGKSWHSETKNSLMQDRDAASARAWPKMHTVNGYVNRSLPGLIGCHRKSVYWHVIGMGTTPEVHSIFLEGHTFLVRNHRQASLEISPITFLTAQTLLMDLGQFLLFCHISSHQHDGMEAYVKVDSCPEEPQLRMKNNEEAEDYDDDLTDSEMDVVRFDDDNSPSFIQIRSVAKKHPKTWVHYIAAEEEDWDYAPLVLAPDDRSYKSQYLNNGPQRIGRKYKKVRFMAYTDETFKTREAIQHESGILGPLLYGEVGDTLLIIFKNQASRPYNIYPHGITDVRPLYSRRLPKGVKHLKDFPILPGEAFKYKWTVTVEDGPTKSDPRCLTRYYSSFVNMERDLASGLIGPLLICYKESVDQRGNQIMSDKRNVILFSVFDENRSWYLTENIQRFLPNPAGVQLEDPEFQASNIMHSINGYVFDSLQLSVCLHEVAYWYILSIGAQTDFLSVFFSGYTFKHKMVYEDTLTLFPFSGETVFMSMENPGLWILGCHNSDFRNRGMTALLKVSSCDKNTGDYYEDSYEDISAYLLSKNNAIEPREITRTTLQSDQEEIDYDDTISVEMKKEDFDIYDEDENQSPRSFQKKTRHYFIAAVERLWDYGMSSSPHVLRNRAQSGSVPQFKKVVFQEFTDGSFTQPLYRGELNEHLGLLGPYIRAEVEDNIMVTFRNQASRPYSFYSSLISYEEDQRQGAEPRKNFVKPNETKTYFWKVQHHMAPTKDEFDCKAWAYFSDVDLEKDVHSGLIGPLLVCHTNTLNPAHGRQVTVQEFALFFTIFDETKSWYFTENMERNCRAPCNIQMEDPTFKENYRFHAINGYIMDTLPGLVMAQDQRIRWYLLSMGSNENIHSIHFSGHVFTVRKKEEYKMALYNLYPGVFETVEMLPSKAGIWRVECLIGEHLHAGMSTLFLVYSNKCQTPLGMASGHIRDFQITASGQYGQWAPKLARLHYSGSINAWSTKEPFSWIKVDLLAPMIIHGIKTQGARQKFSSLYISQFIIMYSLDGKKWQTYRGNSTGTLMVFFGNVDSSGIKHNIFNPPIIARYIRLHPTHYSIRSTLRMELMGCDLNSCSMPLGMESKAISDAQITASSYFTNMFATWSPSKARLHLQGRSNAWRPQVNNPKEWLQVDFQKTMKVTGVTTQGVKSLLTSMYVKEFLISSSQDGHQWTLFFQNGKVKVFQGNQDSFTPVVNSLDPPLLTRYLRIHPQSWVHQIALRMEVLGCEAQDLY
For assay [11], the target named is HP7, hybrid human/porcine B-domainless factor VIII, porcine substitution 445-508 (human; porcine) (UniProt P00451).
The target in assay [12] is HP6, hybrid human/porcine B-domainless factor VIII, porcine substitution 373-444 (human; porcine) (UniProt P00451).
The target in assay [13] is HP11, hybrid human/porcine B-domainless factor VIII, porcine substitution 404-508 (human; porcine) (UniProt P00451).
Assay [14] deals with human B-domainless factor VIII R490 → A (human) (UniProt P00451).
Assay [15] addresses human B-domainless factor VIII Y487 → A (human) (UniProt P00451).
For assay [16], the target named is HP4, hybrid human/porcine B-domainless factor VIII, porcine substitution 373-540 (human; porcine) (UniProt P00451).
Assay [17] addresses human B-domainless factor VIII P485 → A (human) (UniProt P00451).
Assay [18] concerns the target HP9, hybrid human/porcine B-domainless factor VIII, porcine substitution 484-508 (human; porcine) (UniProt P00451).
Assay [19] has as its target human B-domainless factor VIII P492 → A (human) (UniProt P00451).
The target of assay [20] is HP12, hybrid human/porcine B-domainless factor VIII, porcine substitution 489-508 (human; porcine) (UniProt P00451).
Assay [21] concerns the target human B-domainless factor VIII R489 → A (human) (UniProt P00451).
Assay [22] addresses HP5, hybrid human/porcine B-domainless factor VIII, porcine substitution 373-508 (human; porcine) (UniProt P00451).
The target in assay [23] is human B-domainless factor VIII F501 → A (human) (UniProt P00451).

Sequence of human B-domainless factor VIII R489 → A (human) (P00451 other isoform, or with tags, fused parts or gaps): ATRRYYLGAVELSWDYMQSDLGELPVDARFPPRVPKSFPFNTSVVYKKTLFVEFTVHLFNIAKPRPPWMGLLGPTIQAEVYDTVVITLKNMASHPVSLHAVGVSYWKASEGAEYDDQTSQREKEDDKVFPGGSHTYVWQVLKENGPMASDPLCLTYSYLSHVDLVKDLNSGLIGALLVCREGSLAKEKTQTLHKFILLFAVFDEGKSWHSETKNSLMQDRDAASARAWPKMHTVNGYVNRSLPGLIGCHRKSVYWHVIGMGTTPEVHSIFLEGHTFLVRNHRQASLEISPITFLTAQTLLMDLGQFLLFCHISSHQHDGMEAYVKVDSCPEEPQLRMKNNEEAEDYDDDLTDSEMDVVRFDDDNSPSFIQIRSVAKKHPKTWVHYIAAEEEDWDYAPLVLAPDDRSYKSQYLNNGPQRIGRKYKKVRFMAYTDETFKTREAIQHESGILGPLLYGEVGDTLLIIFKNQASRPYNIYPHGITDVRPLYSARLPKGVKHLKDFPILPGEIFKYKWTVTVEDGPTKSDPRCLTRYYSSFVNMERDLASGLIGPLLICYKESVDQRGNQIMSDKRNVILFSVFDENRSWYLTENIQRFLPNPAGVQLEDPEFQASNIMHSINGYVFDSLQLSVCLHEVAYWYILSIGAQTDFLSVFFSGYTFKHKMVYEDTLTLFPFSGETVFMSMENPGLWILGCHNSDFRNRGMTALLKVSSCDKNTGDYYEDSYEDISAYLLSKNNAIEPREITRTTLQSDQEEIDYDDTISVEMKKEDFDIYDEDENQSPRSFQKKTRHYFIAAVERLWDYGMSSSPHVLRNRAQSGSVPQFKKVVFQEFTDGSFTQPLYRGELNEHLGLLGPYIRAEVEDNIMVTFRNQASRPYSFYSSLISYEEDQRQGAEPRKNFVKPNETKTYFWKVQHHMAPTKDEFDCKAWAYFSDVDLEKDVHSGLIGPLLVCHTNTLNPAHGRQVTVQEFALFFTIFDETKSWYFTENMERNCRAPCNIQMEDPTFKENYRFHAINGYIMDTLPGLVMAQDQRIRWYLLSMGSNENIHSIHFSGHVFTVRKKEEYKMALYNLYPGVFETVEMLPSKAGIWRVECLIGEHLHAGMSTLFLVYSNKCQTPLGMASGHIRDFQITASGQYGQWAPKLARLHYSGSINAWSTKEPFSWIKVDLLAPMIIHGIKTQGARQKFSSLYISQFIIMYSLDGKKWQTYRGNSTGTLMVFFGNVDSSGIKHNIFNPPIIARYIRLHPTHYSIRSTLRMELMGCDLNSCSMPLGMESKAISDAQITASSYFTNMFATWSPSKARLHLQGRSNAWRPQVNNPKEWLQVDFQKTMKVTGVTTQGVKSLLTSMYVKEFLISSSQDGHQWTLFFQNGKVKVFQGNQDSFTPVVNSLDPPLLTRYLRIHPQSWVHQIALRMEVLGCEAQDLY
Sequence of B-domainless human factor VIII (human) (P00451 other isoform, or with tags, fused parts or gaps): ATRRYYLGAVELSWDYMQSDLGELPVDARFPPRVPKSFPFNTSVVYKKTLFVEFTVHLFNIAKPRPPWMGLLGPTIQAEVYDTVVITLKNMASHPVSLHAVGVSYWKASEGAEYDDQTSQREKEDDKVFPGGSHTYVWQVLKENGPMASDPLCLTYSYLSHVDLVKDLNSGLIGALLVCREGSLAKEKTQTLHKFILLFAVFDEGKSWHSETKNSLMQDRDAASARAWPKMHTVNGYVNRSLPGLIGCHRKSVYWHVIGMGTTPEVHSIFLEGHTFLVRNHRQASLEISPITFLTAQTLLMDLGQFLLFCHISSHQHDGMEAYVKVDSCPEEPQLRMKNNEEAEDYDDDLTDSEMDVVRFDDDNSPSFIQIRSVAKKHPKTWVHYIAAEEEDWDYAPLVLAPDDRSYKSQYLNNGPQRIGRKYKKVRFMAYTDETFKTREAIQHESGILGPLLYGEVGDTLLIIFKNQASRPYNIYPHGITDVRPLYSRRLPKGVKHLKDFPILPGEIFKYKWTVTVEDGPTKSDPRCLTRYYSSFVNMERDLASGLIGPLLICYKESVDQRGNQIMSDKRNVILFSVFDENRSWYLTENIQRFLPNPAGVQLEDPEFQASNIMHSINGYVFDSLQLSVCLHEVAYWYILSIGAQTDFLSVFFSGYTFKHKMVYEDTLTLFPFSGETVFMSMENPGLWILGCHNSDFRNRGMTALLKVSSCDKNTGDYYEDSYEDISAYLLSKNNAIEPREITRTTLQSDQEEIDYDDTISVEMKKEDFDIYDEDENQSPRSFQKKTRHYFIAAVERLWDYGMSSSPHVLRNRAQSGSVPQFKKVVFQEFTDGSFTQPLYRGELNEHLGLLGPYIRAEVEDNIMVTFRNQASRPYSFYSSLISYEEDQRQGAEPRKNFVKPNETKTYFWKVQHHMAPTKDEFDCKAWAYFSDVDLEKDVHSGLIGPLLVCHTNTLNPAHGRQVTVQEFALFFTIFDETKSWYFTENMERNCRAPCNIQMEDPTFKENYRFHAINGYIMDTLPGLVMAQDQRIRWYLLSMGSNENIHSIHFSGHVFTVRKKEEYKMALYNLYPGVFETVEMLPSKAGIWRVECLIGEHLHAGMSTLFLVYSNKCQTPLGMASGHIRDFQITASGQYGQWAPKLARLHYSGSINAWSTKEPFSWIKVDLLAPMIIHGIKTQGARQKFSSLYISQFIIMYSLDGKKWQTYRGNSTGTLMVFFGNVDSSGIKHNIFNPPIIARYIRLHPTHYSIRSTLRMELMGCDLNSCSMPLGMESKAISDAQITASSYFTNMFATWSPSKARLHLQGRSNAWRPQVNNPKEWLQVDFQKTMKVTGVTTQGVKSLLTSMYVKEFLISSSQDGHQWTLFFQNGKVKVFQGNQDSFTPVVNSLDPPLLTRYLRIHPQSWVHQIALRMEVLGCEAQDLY

“porcine factor VIIIa A2 domain, isolated from porcine blood (from UniProt P12263 392-759)”: the Specific Activity (U/mg) of reconstituted hybrid fVIIIa, two-stage clotting assay at 1 hour in [1] worked out at 140000 U/mg. The same substance registered a Specific Activity (U/mg) of reconstituted fVIIIa, two-stage clotting assay at 1 hour in [2] of 70000 U/mg.

As to “mAb413, murine monoclonal inhibitory antibody specific for the A2 domain of factor VIII”, the Inhibition mAb413 (BU/mg IgG), Bethesda assay in [3] was 1170 BU/mg IgG; in [4] it was 1250 BU/mg IgG; in assay [8], 1470 BU/mg IgG; in assay [9], less than 0.7 BU/mg IgG; in assay [11] it was less than 0.7 BU/mg IgG; in assay [12], 1450 BU/mg IgG. The Inhibition mAb413 (BU/mg IgG), Bethesda assay in assay [13], in assay [16], in assay [18], in [20] and in assay [22] was less than 0.7 BU/mg IgG throughout. For the same substance, the % Reactivity relative to wild-type in [5] is 37%; in [6] it was 113%; in [7] it was 1.7%; in [10], 60%; in assay [14], less than 0.5%; in assay [15] it was 0.53%. Moreover, the % Reactivity relative to wild-type came to 42% in assay [17], 6.7% in assay [19], 0.015% in [21] and 126% in assay [23]. Moreover, the MAb413 titer (BU/mg), Bethesda assay was 3500 BU/mg in [5]; 10700 BU/mg in assay [6]; 160 BU/mg in assay [7]; 9400 BU/mg in [8]; 5620 BU/mg in [10]; 50 BU/mg in [15]. For the same substance, the MAb413 titer (BU/mg), Bethesda assay in [17] came to 4000 BU/mg; in assay [19], 630 BU/mg; in assay [21], 1.6 BU/mg; in assay [23] it was 11900 BU/mg. This substance also came in with a reactivity to inhibitor relative to human factor VIII in [14] of 0.2%.
